Results published in patent US20240141364.

Columns and labels:
Experiment in all cases: cell_activity
[1] = test system: SB03937 ZF10-HDAC4-ecpd-degron (synthetic construct); conditions: mCherry increase with 1 uM pomalidomide vs no drug; represses without drug; U87-MG
[2] = test system: SB03758 degron-A(EAAAK)3A-ZF10-minKRAB (synthetic construct); conditions: mCherry increase with 1 uM pomalidomide vs no drug (release of repression); U87-MG
[3] = test system: SB03936 degron-A(EAAAK)3A-HDAC4-ZF10-1 (synthetic construct); conditions: mCherry increase with 1 uM pomalidomide vs no drug; represses without drug; U87-MG
Chain of SB03936 degron-A(EAAAK)3A-HDAC4-ZF10-1 (synthetic construct) (chain, as listed by the source): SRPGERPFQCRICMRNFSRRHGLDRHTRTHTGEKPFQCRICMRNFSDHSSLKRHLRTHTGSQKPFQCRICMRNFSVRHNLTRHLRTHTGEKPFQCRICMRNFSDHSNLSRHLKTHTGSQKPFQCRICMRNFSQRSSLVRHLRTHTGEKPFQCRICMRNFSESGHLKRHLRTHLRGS

[4] = test system: SB03759 degron-A(EAAAK)3A-ZF10-1-minKRAB (synthetic construct); conditions: mCherry increase with 1 uM pomalidomide vs no drug (release of repression); U87-MG; text describes the reporter as SEQ ID NO 56 core promoter with four …
Chain of SB03759 degron-A(EAAAK)3A-ZF10-1-minKRAB (synthetic construct) (chain, as listed by the source): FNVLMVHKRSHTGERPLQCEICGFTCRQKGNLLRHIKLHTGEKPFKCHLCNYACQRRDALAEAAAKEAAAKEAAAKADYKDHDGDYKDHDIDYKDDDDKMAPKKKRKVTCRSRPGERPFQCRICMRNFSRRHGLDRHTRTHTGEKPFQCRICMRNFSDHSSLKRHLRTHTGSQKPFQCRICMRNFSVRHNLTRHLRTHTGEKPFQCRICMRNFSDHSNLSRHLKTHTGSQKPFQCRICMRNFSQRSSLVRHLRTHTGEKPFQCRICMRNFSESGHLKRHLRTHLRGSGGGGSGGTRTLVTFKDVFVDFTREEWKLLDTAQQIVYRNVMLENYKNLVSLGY

Measured: activity

Chain of SB03758 degron-A(EAAAK)3A-ZF10-minKRAB (synthetic construct) (chain, as listed by the source): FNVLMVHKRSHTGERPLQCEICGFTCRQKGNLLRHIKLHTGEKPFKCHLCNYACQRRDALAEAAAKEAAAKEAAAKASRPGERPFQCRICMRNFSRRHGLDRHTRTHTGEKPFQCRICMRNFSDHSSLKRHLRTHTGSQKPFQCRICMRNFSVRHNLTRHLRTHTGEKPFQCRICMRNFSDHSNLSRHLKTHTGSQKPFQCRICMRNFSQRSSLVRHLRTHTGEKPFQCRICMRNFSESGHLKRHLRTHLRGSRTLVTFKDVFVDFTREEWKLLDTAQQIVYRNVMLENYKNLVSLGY

CGGGTTTCGTAACAATCGCATGAGGATTCGCAACGCCTTCGGCGTAGCCGATGTCGCGCTCCCGTCTCAGTAAAGGTCGGCGTAGCCGATGTCGCGCAATCGGACTGCCTTCGTACGGCGTAGCCGATGTCGCGCGTATCAGTCGCCTCGGAACGGCGTAGCCGATGTCGCGCATTCGTAAGAGGCTCACTCTCCCTTACACGGAGTGGATAACTAGTTCTAGAGGGTATATAATGGGGGCCA (double strand) [4xZF10-1 binding sites + core promoter (mCherry reporter)]
> 4 fold: [1] | [2] | [3] | [4]
